B1: YD73 Fab (Fab, V domains shown)
VH: QVQLVQSGAEVKKPGASVKVSCKASGYTFIAYGISWVRQAPGQGLEWMGWISAHNGNTNYAQKFQGRVTVTTDTTTRTAFMELRNLRSDDTAVYYCARAPWEYNYRSSGYYDSPYWGQGTLVTVSS
VL: EIVLTQSPGTLSLSPGERATLSCRASQSVVSTYLAWYQQKPGQAPRLLIYDTSTRATGIPDRFSGSGSGTDFTLTISRLEPEDFAVYYCQHYDSSPPWTFGQGTKVEIK
B2: YD6 Fab (Fab, V domains shown)
VH: EVQLVESGGGLVKPGGSLRLSCAASGFIFSDYYMMWIRQAPGKGLEWISYISSSGSQIYYTESVKGRFTISRDNGKNLLYLQMNSLRGEDTALYYCATETGWRIDTWGQGTLVTVSS
VL: QAVLTQPASVSGSPGQSITISCTGTGSNIETYNLVSWYQRHPGKAPKLILYEVSERPSGVSNRFSGSKSGNTASLTISGLQAEDEADYFCCSYADTNIFWVFGGGTHLTVL
B3: YD6 scFv (scFv, V domains shown)
VH: EVQLVESGGGLVKPGGSLRLSCAASGFIFSDYYMMWIRQAPGKGLEWISYISSSGSQIYYTESVKGRFTISRDNGKNLLYLQMNSLRGEDTALYYCATETGWRIDTWGQGTLVTVSS
VL: QAVLTQPASVSGSPGQSITISCTGTGSNIETYNLVSWYQRHPGKAPKLILYEVSERPSGVSNRFSGSKSGNTASLTISGLQAEDEADYFCCSYADTNIFWVFGGGTHLTVL

The values that follow come from paper PMC9529537 (The Innovation, 2022).

The target of the experiment is yellow fever virus soluble envelope (E) protein (Yellow fever virus, strain CNYF01/2016 …). The experiment is described as follows: crystal structure.
For B1, the binding result is recorded as “binds”. The entry for B2 is “binds”; for B3 it is “binds”.
